These results are taken from patent EP3020822A1.

The target in the assay is human TLR3, full length (human) (UniProt O15455). Briefly: cell-based or functional assay.

B1: mAb c1068 (antibody, from another filing, V domains shown)
VH: QVQLQQPGAELVQPGTSVRLSCKASGYIFTTYWIHWVKQRPGQGLEWIGEINPNNGRINYNEKFKTKATLTVDKSSSTAYMQLSSLTSEDSAVYYCTRVGVMITTFPYWGQGTLVTVSA
VL: DIQMTQSPASLSASVGETVTITCRASGNIHNYLAWYQQKQGKSPQLLVYNAKTLADGVPSRFSGSESGTQYSLKINSLQPEDFGSYYCQHFWSTPFTFGSGTKLELK
For the molecule B1, the % inhibition of TLR3 biological activity, poly(I:C) NF-κB reporter gene assay in 293T cells, mAb at 10 µg/ml amounted to 38% and the TLR3 neutralization at saturation concentrations is 50%.
